Molecular target: portions of the MUC16 extracellular domain (ECD) (UniProt Q8NEV4)
Experiment: surface plasmon resonance with portions of the MUC16 ECD

B1: A117C thio hu anti-MUC16 3A5 humanized variant (antibody, human IgG1, kappa, V domains shown)
VH: EVQLVESGGGLVQPGGSLRLSCAASGYSITNDYAWNWVRQAPGKGLEWVGYISYSGYTTYNPSLKSRFTISRDTSKNTLYLQMNSLRAEDTAVYYCARWTSGLDYWGQGTLVTVSS
VL: DIQMTQSPSSLSASVGDRVTITCKASDLIHNWLAWYQQKPGKAPKLLIYGATSLETGVPSRFSGSGSGTDFTLTISSLQPEDFATYYCQQYWTTPFTFGQGTKVEIKR
notes: Full-length IgG expressed in CHO cells; Kabat A114C, Eu A118C) change; also called thio hu anti-MUC16 HC A117C 3A5; A117C thio hu 3A5
Kd: 116 pM
